Experimental findings from patent US20240228596A1 (VIB VZW, published 2024) are described below.

The target of assay [1] is T1, RBD of SARS-COV-1 displayed on yeast cells (SARS-COV-1, UniProt P59594 318-517). Nature of the assay: flow cytometry, yeast-displayed RBD (data not shown).
Assay [2] addresses RBD of Rp3 sarbecovirus displayed on yeast cells (Rp3 sarbecovirus, UniProt Q3I5J5 322-503). The assay is described as above.
Assay [3] deals with T2, RBD of HKU3 sarbecovirus displayed on yeast cells (HKU3 sarbecovirus, UniProt Q3LZX1 322-504). Described as above.
The target in assay [4] is T3, SARS-COV-2 Wuhan WT Spike_del18 on VSV-delG pseudotyped particles (SARS-COV-2, UniProt P0DTC2 14-1255). As to the kind of experiment: cell-based or functional assay.
The next assay concerns the target SARS-COV-2 RBD-SD1 (SARS-COV-2, UniProt P0DTC2 319-591). Nature of the assay: periplasmic extract ELISA. For orientation: In an ELISA, binding on a coated surface is turned into a signal by an enzyme label.
Assay [5] concerns the target T1, RBD of SARS-COV-1 displayed on yeast …. As to the kind of experiment: flow cytometry, yeast-displayed RBD.
Assay [6] has as its target T2, RBD of HKU3 sarbecovirus displayed on …. Nature of the assay: flow cytometry, yeast-displayed RBD. For orientation: A flow cytometer gives signals particle by particle.
Assay [7] has as its target T3, SARS-COV-2 Wuhan WT Spike_del18 on …. Nature of the assay: cell-based or functional assay. The source holds these as a separate data set.
In assay [8] the target is SARS-COV-1 spike protein on VSV-delG pseudotyped particles (SARS-COV-1, UniProt P59594 14-1255). As to the kind of experiment: cell-based or functional assay.
In assay [9] the target is T3, SARS-COV-2 Wuhan WT Spike_del18 on …. As to the kind of experiment: cell-based or functional assay. The source holds these as a separate data set.

B1: VHH3.83 (VHH)
VHH: QVQLQESGGGLVQPGDSLRLSCVLSGGVFTSYAMGWFRQAPGKEREFLAAITFNSDATYYADSVKGRFTISRDNAKNTAYLQMNSLKPNDTAVYSCAAGGNHYNPQYYHDYDKYDHWGQGTQVTVSS
On to B1, for which the binding result in assay [1], in [2] and in assay [3] was “binds” throughout. In addition, in assay [4], the “IC50 ug/ml, pseudoneutralization assay” value is 0.262 µg/mL.

B2: VHH4.2XAS43 (VHH)
VHH: QVQLQESGGGLVQAGDSLTLSCAASGRTGSNYAMGWFRQAPGKEREFLAAITFNSDATYYADSVKGRFTISRDNAKNTAYLQMNSLKPDDTAVYSCAAGGNHYNPQYYHDYDKYDHWGQGTQVTVSS
With B2, the binding result with SARS-COV-2 RBD-SD1 is listed as “binds”.

B3: VHH4.1XAS51 (VHH)
VHH: QVQLQESGGGLVQAGGSLRLSCTASTPTIKNYAMGWFRQAPGKEREFLAAITFNSDATYYADSVKGRFTISRDNAKNTAYLQMNSLKPDDTAVYSCAAGGNHYNPQYYHDYDKYDYWGQGTQVTVSS
As to B3, the binding result in the assay with SARS-COV-2 RBD-SD1 was “binds”.

B4: VHH4.2XAS31 (VHH)
VHH: QVQLQESGGGFVQAGGSLRLSCATSGHRFSDYAVAWFRQTPGKEREFLAAITFNSDATYYADSVKGRFTISRDNAKNTAYLQMNSLKPDDTAVYSCAAGGNHYNPQYYHDYDKYDHWGQGTQVTVSS
Consider B4, for which the binding result with SARS-COV-2 RBD-SD1 was “binds”.

B5: VHH3.89 (VHH)
VHH: QVQLQESGGGLVQPGGSLRLSCAASGFTLDYYAIGWFREVPGKEREGLSRIDSSDGSTYYADSVKGRFTISRDNTKNIVYLQMNNLKPEDTAVYYCATDPIIQGRNWYWTGWGQGTQVTVSS
Regarding B5, the binding result in assay [5] and in assay [6] was “binds” throughout.

B6: VHH4.2XAS58 (VHH)
VHH: QVQLQESGGGLVQSGGSLRLSCAGSGFPLEAFSIGWFRQAPGKEREFLAAITFNSDATYYADSVKGRFTISRDNAKNTAYLQMNSLKPDDTAVYSCAAGGNHYNPQYYHDYDKYDHWGQGTQVTVFS
B6: in the assay with SARS-COV-2 RBD-SD1, the binding result is listed as “binds”.

B7: VHH3.42 (VHH)
VHH: QVQLQESGGGLVQPGGSLRLSCAASGSAVSINDMGWYRQPPGKQRELVATITKTGSTNYADSVKGRFTISRDNAKNAVYLEMNSLKPEDTATYYCNAWLPYGMGPDYYGMELWGKGTQVTVSS
With B7, the “neutralization IC50” value in [7] is 54.8 nM. Further, the binding result in [3] was “binds”. The “IC50 Mean VSV-dG-spike SARS-COV-1” value in assay [8] came to 0.19 µg/mL. Besides, the “IC50 Mean VSV-dG-spike SARS-COV-2” value in assay [9] was 0.8 µg/mL.

B8: VHH3.92 (VHH)
VHH: QVQLQESGGGLVQPGGSLRLSCAASGKAVSISDMGWYRQPPGKQRELVATITKTGNTNYADSAQGRFTISRDNAKSAVYLEMASLKPEDTAVYYCNAWLPYGMGPDYYGMELWGKGTQVTVSS
Turning to B8, the “neutralization IC50” value in [7] worked out at 13.6 nM. Moreover, the binding result in assay [3] is on record as “binds”. In addition, the “IC50 Mean VSV-dG-spike SARS-COV-2” value in assay [9] is 0.21 µg/mL.

B9: VHH3.117 (VHH)
VHH: QVQLQESGGGLVQPGGSLRLSCAASGKAVSISDMGWYRQPPGKQRELVATITKTGSTNYADSAQGRFTISRDNTKSAVYLEMKSLKPEDTAVYYCNAWLPYGMGPDYYGMELWGKGTQVTVSS
As to B9, the “neutralization IC50” value in assay [7] amounted to 13.7 nM. In assay [4], the “IC50 ug/ml, pseudoneutralization assay” value was determined as 0.539 µg/mL. Moreover, in assay [8], the “IC50 Mean VSV-dG-spike SARS-COV-1” value was found to be 0.016 µg/mL. The “IC50 Mean VSV-dG-spike SARS-COV-2” value in assay [9] came to 0.2 µg/mL. In assay [6], the binding result is “binds”.
